Laboratory results taken from patent US20070196377A1 (Daiichi Sankyo, published 2007).

Target: Rac1 expressed as an N-terminal GST-fusion protein (Bos taurus (Bovine), UniProt P62998 1-189)
Experiment: GST pull-down, anti-FLAG Western blot
Experimental: Each cell lysate was subjected to a pull-down assay for detecting the binding of the hj03796 DH/PH, or the proto-Db1 DH/PH, to a Rho family protein. 300 μL of each cell lysate, 20 μL of Glutathione Sepharose 4B in the lysis buffer, and 100 μL of the lysis buffer were mixed. Each sample was prepared in such a way that the final concentration of MgCl₂ and dithiothreitol (DTT) was 1 mM. After reacting at 4° C. for 1 hour with rotating by rotator, each sample washed three times with 1 mL of cold lysis buffer (the final concentration of MgCl₂ was 1 mM) by centrifigation at 1,000 rpm for 15 seconds at 4° C. After washing and removing the supernatant, the Glutathione Sepharose 4B was added with 40 μL of a solution that was prepared by mixing SDS-PAGE sample buffer (the same composition as in Example 2) with an equal volume of the lysis buffer. After that, it was mixed with a mixer and subjected to a heat treatment at 100° C. for 5 minutes, to prepare a sample for electrophoresis. SDS-polyacrylamide gel electrophoresis was carried out, and then the gel was equilibrated for 5 minutes or more in a blotting buffer (the same composition as in Example 2). The proteins were transferred onto a PVDF membrane. After blotting, the PVDF membrane was subjected to blocking at 4° C. overnight, in TBS-T+BA (the same composition as in Example 2). […]

binding result: no binding
B1: proto-Db1 DH/PH (C-terminal FLAG-tagged protein) (other)
chain: MAVLKNHVLNELIQTERVYVRELYTVLLGYRAEMDNPEMFDLMPPLLRNKKDILFGNMAEIYEFHNDIFLSSLENCAHAPERVGPCFLERKDDFQMYAKYCQNKPRSETIWRKYSECAFFQECQRKLKHRLRLDSYLLKPVQRITKYQLLLKELLKYSKDCEGSALLKKALDAMLDLLKSVNDSMHQIAINGYIGNLNELGKMIMQGGFSVWIGHKKGATKMKDLARFKPMQRHLFLYEKAIVFCKRRVESGEGSDRYPSYSFKHCWKMDEVGITEYVKGDNRKFEIWYGEKEEVYIVQASNVDVKMTWLKEIRNILLKQ
notes: Positive control; also called DH/PH domain of proto Db1; deletion mutant of proto-Db1; not shown: C-terminal FLAG tag of vector pFLAG-CMV5a
